According to publication PMC5122317:

Molecular target: iRFP (Rhodopseudomonas palustris)
Experiment: SEC

iRFP
stoichiometry N: 1.92 fold
